Tests used:
[1] = test system: IMR90 human lung fibroblast cells; test: SMA and collagen I protein expression in IMR90 fibroblasts treated with recombinant ACLP proteins (Western blot); type: cell-based; details: IMR90, low serum media, 3.75 μg/ml (~30 nM) protein, 48 h, vs control cells
Method: Cell Treatments. IMR90 human lung fibroblasts (ATCC) and AD293 cells (Stratagene) were grown in DMEM supplemented with 10% FBS and 1% penicillin/streptomycin and incubated in a 5% CO2 atmosphere at 37° C. Mink lung epithelial cells stably transfected with the plasminogen activator inhibitor 1 (PAI-1) reporter construct driving luciferase expression (MLEC-TGFβ) (2) were grown in DMEM supplemented with 10% FBS and 1% penicillin/streptomycin, maintained in 250 μg/ml G418, and incubated in a 5% CO2 atmosphere at 37° C.
(§1) IMR90 cells and MLEC-TGFβ cells were generally treated for 30 min, 24 h, or 48 h in low serum media containing 0.5% FBS and 1% penicillin/streptomycin and incubated in a 5% CO2 atmosphere at 37° C. Cells were treated with 3.75 μg/ml (approximately 30 nM) rACLP (full length, Tsp, or C-terminal) or 1 nM TGFβ (R&D) (as a positive control), except where indicated. Cells treated for 30 min were serum starved in low serum media overnight preceding treatment.
Recombinant ACLP induces myofibroblast gene and protein expression. To further define the role of ACLP in the fibroblast to myofibroblast differentiation process, IMR90 human lung fibroblast cells were treated with rACLP. […] IMR90 cells were grown in media containing 3.75 μg/ml (30 nM) rACLP or 1 nM TGFβ as a positive control (FIG. 2A). […] These findings indicate that ACLP promotes the fibroblast to myofibroblast differentiation because it stimulates expression of SMA and collagen 1(3).
The N-terminal domain of ACLP promotes myofibroblast marker protein expression. Because the inventors discovered that the N-terminal Tsp motifs of ACLP (e.g. the PFD) is the domain responsible for promoting TGFβ signaling, the inventors next assessed which domain of ACLP is responsible for increased SMA and collagen I expression in lung myofibroblasts. IMR90 lung fibroblasts were treated in low serum media containing equal molar amounts of full-length protein, the pro-fibrotic domain (PFD) of ACLP, and C-terminal ACLP (˜30 nM) for 48 h (FIG. 7).

TGFβ = test: ACLP interaction with TGFβ (cell-free binding assay; latent TGFβ activation; data not shown)
[2] = test system: Smad3 phosphorylation (canonical TGFβ signaling); test: Smad3 phosphorylation in serum starved IMR90 fibroblasts (Western blot); type: cell-based, human; details: for Smad3 phosphorylation: serum starved IMR90, ~30 nM protein, 30 min, low serum media
Method: as §1
rACLP stimulates canonical TGFβ signaling (Published Tumelty et al JBC 2014). Because ACLP increases TGFβ signaling in a reporter assay, the role of ACLP in canonical TGFβ signaling was investigated in detail. In pulmonary fibroblasts, TGFβ promotes the phosphorylation of Smad3 which then binds to Smad4 and translocates into the nucleus to promote transcription of myofibroblast marker genes (4,5). Therefore, the effects of ACLP on Smad3 phosphorylation were measured. Serum starved IMR90 cells were treated with rACLP for 15, 30, 45, or 60 min, or 24 h (FIG. 3) (3).
Serum starved IMR90 human lung fibroblasts were treated with equivalent molar amounts (˜30 nM) of purified full-length, Tsp repeat domain, or C-terminal protein for 30 min in low serum media (FIG. 6).

[3] = test system: Normal murine mammary gland epithelial cells (NMuMg); test: EMT marker qPCR in NMuMg cells treated with rACLP; type: cell-based, mouse
Method: Normal murine mammary gland epithelial cells (NMuMg) were treated with rACLP (30 nM) or TGFβ (1 nM) and RNA was analyzed by qPCR after 48 hours.

TGFβ Receptor II (TβRII) = molecular target: T1, TGFβ Receptor II (TβRII) (Mus musculus, UniProt Q62312); test: ACLP binding assay: biotinylated rACLP on streptavidin plate incubated with TβRII Fc; details: immobilized rACLP vs control-coated wells, p<0.05
T1 construct: contains the extracellular domain of mouse TβRII fused to the Fc domain of human IgG; purchased R&D
T1 sequence (Q62312 24-166 limits assumed): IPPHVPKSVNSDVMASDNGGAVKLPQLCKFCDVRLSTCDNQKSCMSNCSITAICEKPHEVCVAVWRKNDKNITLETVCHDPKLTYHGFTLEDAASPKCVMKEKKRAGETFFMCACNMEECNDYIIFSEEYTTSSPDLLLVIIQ
Method: ACLP binding assays. To determine if ACLP binds to TGFβ Receptor II (TORII), ACLP was biotinylated using an EZ-Link Sulfo-NHS-LC-Biotin kit (Thermo Scientific 21327) according to manufacturer's instructions. Briefly, rACLP (0.267 nM) was incubated with 20 fold molar excess of biotin for 30 min at room temperature. The protein was then dialyzed back into DPBS overnight. Biotinylated ACLP (1 μg/well) was immobilized on a PIERCE™ Streptavidin coated High-Binding Capacity Plate (Thermo-Scientific PI-15500) overnight at 4° C. in binding buffer made up of PBS with Mg^2+, Ca^2+, 0.1% BSA, and 0.05% Tween 20). The next day, the plates were washed with binding buffer, blocked with the same buffer containing 1% BSA at room temperature for 1 h, followed by incubation with increasing amounts of TβRII Fc (0, 10, 100, 1000 ng). Binding was detected with Human-IgG-HRP (GE Healthcare Life Sciences) followed by incubation with 3,3′,5,5′-Tetramethylbenzidine (TMB, eBioscience). The reaction was quenched with 2 M H2SO4 and absorbance at 450 nm was measured on the BioTek Synergy HT system.
ACLP binds to the TGFβ-receptor II. […] The TβRII Fc chimera contains the extracellular domain of mouse TβRII fused to the Fc domain of human IgG and has been used as a global inhibitor of TGFβ (6).

[4] = test system: TGFβ signaling activity (PAI-1 promoter luciferase); test: MLEC-TGFβ activity assay (PAI-1 promoter luciferase reporter); type: cell-based, mink; details: MLEC-TGFβ cells, treated overnight in low serum media
Method: Cell Treatments. IMR90 human lung fibroblasts (ATCC) and AD293 cells (Stratagene) were grown in DMEM supplemented with 10% FBS and 1% penicillin/streptomycin and incubated in a 5% CO2 atmosphere at 37° C. Mink lung epithelial cells stably transfected with the plasminogen activator inhibitor 1 (PAI-1) reporter construct driving luciferase expression (MLEC-TGFβ) (2) were grown in DMEM supplemented with 10% FBS and 1% penicillin/streptomycin, maintained in 250 μg/ml G418, and incubated in a 5% CO2 atmosphere at 37° C. IMR90 cells and MLEC-TGFβ cells were generally treated for 30 min, 24 h, or 48 h in low serum media containing 0.5% FBS and 1% penicillin/streptomycin and incubated in a 5% CO2 atmosphere at 37° C. Cells were treated with 3.75 μg/ml (approximately 30 nM) rACLP (full length, Tsp, or C-terminal) or 1 nM TGFβ (R&D) (as a positive control), except where indicated. Cells treated for 30 min were serum starved in low serum media overnight preceding treatment. MLEC-TGFβ activity assay. To measure TGFβ signaling activity, 1×10^4 MLEC-TGFβ cells/well were plated on white 96-well cell culture treated plates and allowed to adhere overnight. […] Luciferase activity was measured on an auto-injecting BioTek Synergy HT plate reader using 50 μl of luciferase assay substrate (Promega).

B1: rACLP: recombinant full length mouse ACLP (amino acids 26-1128), BM40 signal sequence, C-terminal myc-His tag, from AD293 cells (protein)
chain: QTVLTDDEIEEFLEGFLSELETQSPPREDDVEVQPLPEPTQRPRKSKAGGKQRADVEVPPEKNKDKEKKGKKDKGPKATKPLEGSTRPTKKPKEKPPKATKKPKEKPPKATKKPKEKPPKATKKPKEKPPKATKRPSAGKKFSTVAPLETLDRLLPSPSNPSAQELPQKRDTPFPNAWQGQGEETQVEAKQPRPEPEEETEMPTLDYNDQIEKEDYEDFEYIRRQKQPRPTPSRRRLWPERPEEKTEEPEERKEVEPPLKPLLPPDYGDSYVIPNYDDLDYYFPHPPPQKPDVGQEVDEEKEEMKKPKKEGSSPKEDTEDKWTVEKNKDHKGPRKGEELEEEWAPVEKIKCPPIGMESHRIEDNQIRASSMLRHGLGAQRGRLNMQAGANEDDYYDGAWCAEDESQTQWIEVDTRRTTRFTGVITQGRDSSIHDDFVTTFFVGFSNDSQTWVMYTNGYEEMTFYGNVDKDTPVLSELPEPVVARFIRIYPLTWNGSLCMRLEVLGCPVTPVYSYYAQNEVVTTDSLDFRHHSYKDMRQLMKAVNEECPTITRTYSLGKSSRGLKIYAMEISDNPGDHELGEPEFRYTAGIHGNEVLGRELLLLLMQYLCQEYRDGNPRVRNLVQDTRIHLVPSLNPDGYEVAAQMGSEFGNWALGLWTEEGFDIFEDFPDLNSVLWAAEEKKWVPYRVPNNNLPIPERYLSPDATVSTEVRAIISWMEKNPFVLGANLNGGERLVSYPYDMARTPSQEQLLAEALAAARGEDDDGVSEAQETPDHAIFRWLAISFASAHLTMTEPYRGGCQAQDYTSGMGIVNGAKWNPRSGTFNDFSYLHTNCLELSVYLGCDKFPHESELPREWENNKEALLTFMEQVHRGIKGVVTDEQGIPIANATISVSGINHGVKTASGGDYWRILNPGEYRVTAHAEGYTSSAKICNVDYDIGATQCNFILARSNWKRIREILAMNGNRPILRVDPSRPMTPQQRRMQQRRLQYRLRMREQMRLRRLNSTAGPATSPTPALMPPPSPTPAITLRPWEVLPTTTAGWEESETETYTEVVTEFETEYGTDLEVEEIEEEEEEEEEEMDTGLTFPLTTVETYTVNFGDF
modifications: left off: small tags and cut ends
[1]
  SMA protein expression: induced an increase
  collagen protein expression: induced an increase
[1]; listed as Full-length ACLP
  SMA protein expression: promoted an increase
  collagen protein expression: promoted an increase
TGFβ
  activation of latent TGFβ: did not appear to
TGFβ; cell-free binding assay
  direct interaction with TGFβ: did not appear to directly interact
[2]; serum starved IMR90, 3.75 μg/ml rACLP
  time at which Smad3 phosphorylation was first detected: 15 min
[2]; serum starved IMR90, 3.75 μg/ml rACLP, 15-60 min
  Smad3 phosphorylation, short-term treatment: stimulated Smad3 phosphorylation
[2]; serum starved IMR90, 3.75 μg/ml rACLP, 24 h
  Smad3 phosphorylation after 24 h: not detectable
[2]
  Smad3 phosphorylation: stimulated Smad3 phosphorylation
[3]; ACLP treated cells, consistent with EMT
  cellular morphology: change in cellular morphology
[3]; NMuMg, rACLP 30 nM, 48 hours
  epithelial marker occludin (qPCR): decreasing
  mesenchymal marker SMA (qPCR): enhanced
  mesenchymal marker Snail (qPCR): enhanced
  mesenchymal marker fibronectin (qPCR): enhanced
TGFβ Receptor II (TβRII)
  binding to the TβRII Fc chimera (absorbance at 450 nm): significantly more binding

B2: C-terminal ACLP: recombinant C-terminal discoidin and carboxypeptidase domains of mouse ACLP, amino acids 374-1128 (protein)
chain: IKCPPIGMESHRIEDNQIRASSMLRHGLGAQRGRLNMQAGANEDDYYDGAWCAEDESQTQWIEVDTRRTTRFTGVITQGRDSSIHDDFVTTFFVGFSNDSQTWVMYTNGYEEMTFYGNVDKDTPVLSELPEPVVARFIRIYPLTWNGSLCMRLEVLGCPVTPVYSYYAQNEVVTTDSLDFRHHSYKDMRQLMKAVNEECPTITRTYSLGKSSRGLKIYAMEISDNPGDHELGEPEFRYTAGIHGNEVLGRELLLLLMQYLCQEYRDGNPRVRNLVQDTRIHLVPSLNPDGYEVAAQMGSEFGNWALGLWTEEGFDIFEDFPDLNSVLWAAEEKKWVPYRVPNNNLPIPERYLSPDATVSTEVRAIISWMEKNPFVLGANLNGGERLVSYPYDMARTPSQEQLLAEALAAARGEDDDGVSEAQETPDHAIFRWLAISFASAHLTMTEPYRGGCQAQDYTSGMGIVNGAKWNPRSGTFNDFSYLHTNCLELSVYLGCDKFPHESELPREWENNKEALLTFMEQVHRGIKGVVTDEQGIPIANATISVSGINHGVKTASGGDYWRILNPGEYRVTAHAEGYTSSAKICNVDYDIGATQCNFILARSNWKRIREILAMNGNRPILRVDPSRPMTPQQRRMQQRRLQYRLRMREQMRLRRLNSTAGPATSPTPALMPPPSPTPAITLRPWEVLPTTTAGWEESETETYTEVVTEFETEYGTDLEVEEIEEEEEEEEEEMDTGLTFPLTTVETYTVNFGDF
modifications: left off: small tags and cut ends
[4]
  amount that stimulated luciferase activity: > 25 µg/mL
[2]
  Smad3 phosphorylation: did not

Source: patent US12139542B2, “Inhibitors of aortic carboxypeptidase-like protein (ACLP)” (TRUSTEES OF BOSTON UNIVERSITY, priority 2014, dated 2024)
